B1: OR4K15 (parent)
chain: GUUAACGGUCAUAGGCCAUGGAAACUAGGAGCACCAUUUCGCUGCCAGUGAAGAAAUGAACAAAGAAAAUCUGGGCCAGGCAGGCAUCAAAAGAAAUAGUCUUGCGCUCAACCAGAAAGUCUGUAAUCAUUUUAAGGGUA

The variants in the data set derive from B1. In words: self-cleavage, relative activity (ratio to wild type); higher = more cleavage; in vitro, sequencing; the parent is a self-cleaving ribozyme.
For A13G A126U, the self-cleavage was found to be 0.88. As for A13G U70G, the self-cleavage amounted to 1.1. With U12C U39C, the self-cleavage was 1.21. With A11U A51G, the self-cleavage came out at 1.48. For the variant A11U C16U, the self-cleavage came to 2.22. Then A13G A90G, with 1.15; and U12A G31A, with 1.75; and A11U G15A, with 1.97.

Consider U12A A91G, for which the self-cleavage came to 1.57. Then U12A A59U, with 0.95; and A11G U87C, with 1.14; and U12G G138A, with 1.44. Then A13G A47U, with 1.26; and U12C G41A, with 1.35; and A11G U132A, with 1.16.

As for A11G U132C, the self-cleavage was found to be 1.21. Consider U12C G31U, for which the self-cleavage came to 1.48.

For A11G C71G, the self-cleavage is 0.34. Then A11G U39A, with 0.88. Next, U12C A134G: 1.7; A13U A23G: 1.43.

With U12C U108C, the self-cleavage worked out at 0.03. Consider A13G C109A, for which the self-cleavage turned out to be 0.6. Next, A11G U43G: 1.18; A11G U43C: 0.92; A11G U43A: 1.12. Regarding G14A A33U, the self-cleavage was determined as 1.16. Next, U12C U19A: 1.05; A11G U37C: 1.16; A13U C35A: 1.88.

U12C A47U: the self-cleavage turned out to be 0.93. Next, U12C U122G: 2.09; U12C A92G: 0.58; U12A U108C: 0.04.

In the case of U12C A82G, the self-cleavage is 0.76. Then A13G A22G, with 1.11. For the variant A13U A47U, the self-cleavage came to 1.24.

As for U12C U127C, the self-cleavage was 0.62. Then A13G A66G, with 0.55; and A13U A60U, with 2.26. Take G14A A30G: the self-cleavage worked out at 2.84. Then U12C A66G, with 0.97. Consider A11G C46U, for which the self-cleavage worked out at 0.77. For A11U G58U, the self-cleavage stood at 0.86. Next, A11G A89G: 0.59. Take A11G A89U: the self-cleavage is 1.34.

As for A13G C107A, the self-cleavage was 0.19. Then A11G G115U, with 0.27; and A11U A23U, with 0.71. As to A13G U97A, the self-cleavage was found to be 1.2. Consider A13G U43C, for which the self-cleavage was 0.98. For U12A C34U, the self-cleavage turned out to be 0.53. Next, A13G C88U: 1.29; A13U C121A: 1.92.

As to U12C A110U, the self-cleavage was 1.26. As for A13G A18U, the self-cleavage worked out at 0.89. Then A13G A18G, with 1.3.

As to A11U A62G, the self-cleavage amounted to 0.96.

Take A11U A62C: the self-cleavage was found to be 0.99. Then A13G G65A, with 1.2. Next, A13U C105U: 0.23; A11G A116G: 0.92; A11G A116U: 0.12. With U12G C105U, the self-cleavage is 0.22.

For U12A U38C, the self-cleavage was 1.4. For the variant A13U U108C, the self-cleavage was 0.01. Then U12A U70C, with 0.41; and U12C U37C, with 1.04. Then A11G C81U, with 0.75.

As to A11G U97G, the self-cleavage stood at 0.34. Turning to A11U U102A, the self-cleavage worked out at 0.7. Then A11G C105U, with 0.09; and U12C A23U, with 0.97.

As to U12A A18G, the self-cleavage was found to be 1.65. For the variant A11G U102A, the self-cleavage came to 0.58. Then U12A U102C, with 1.73. As to A11U A13U, the self-cleavage came out at 1.5. Regarding A13C A30G, the self-cleavage was found to be 1.49. Then A11U A63U, with 1.56; and A11U A126G, with 0.81. Turning to U12C C85A, the self-cleavage amounted to 0.75. With A11U A94G, the self-cleavage amounted to 0.71. As for A13U A24G, the self-cleavage stood at 1.06. As to A13G A69G, the self-cleavage amounted to 0.92. Then A13G A52G, with 1.22.

Consider A13G A52U, for which the self-cleavage stood at 0.84.

As to A11G A96G, the self-cleavage amounted to 1.18. Then A11U U12C, with 0.97; and U12G U37C, with 1.48. Then A13C A66G, with 0.52; and G14A, with 1.24; and U12C A78G, with 0.31. Next, A11G G136U: 1.19; A13U A110G: 0.08. For the variant A13U A110U, the self-cleavage was 1.26. Take A11G A118G: the self-cleavage worked out at 1.02.

In the case of A11G U100C, the self-cleavage amounted to 1.06. Next, A11G U108C: 0.01; U12A A140G: 1.5. For A13G U103C, the self-cleavage stood at 0.75.

As for U12C A51G, the self-cleavage turned out to be 0.87. Next, A11U A18U: 1.82.

Take U12C A129G: the self-cleavage amounted to 0.89.

For the variant A13G G93U, the self-cleavage came out at 0.86. Then A11U U131C, with 1.15. Next, U12A U103C: 0.14; A11G A111C: 0.04; A11G A111U: 0.11. Next, A13G A89U: 1.09; A13G U130A: 0.34. For the variant A13G U130C, the self-cleavage amounted to 0.83. With A13C A135G, the self-cleavage was 1.04. Next, A11G G119A: 2.11. Regarding U12G A13G, the self-cleavage was found to be 1.09.

For the variant A11U U43C, the self-cleavage was 1.44. With A11U A47U, the self-cleavage stood at 0.96. For A13U A62G, the self-cleavage turned out to be 0.9. Then A13G A116G, with 0.55; and A11G G74A, with 0.41. Next, A11G G74C: 0.38; A11G G74U: 0.24. For U12C U38C, the self-cleavage was found to be 1.73. With U12C U38G, the self-cleavage came to 1.22. Consider U12C A111G, for which the self-cleavage worked out at 0.03. Turning to U12A A135G, the self-cleavage is 1.47. Next, U12A A135U: 1.29; A13G A64C: 1.08; A13G A64G: 0.88. Then U12A A33U, with 1.4; and U12C A22G, with 0.98; and U12G A86G, with 0.92. Consider A11G A95G, for which the self-cleavage worked out at 1.73. Consider A11G U70G, for which the self-cleavage is 0.6. Then A11U U103C, with 0.73; and A11U G84A, with 2.42. Then U12C A89C, with 1.09; and U12C U120C, with 0.75. For A11G A114U, the self-cleavage worked out at 0.15. Take A11G A98G: the self-cleavage turned out to be 0.33. Then A11U U139C, with 1.23; and A11G G79A, with 0.16.

Consider U12A A52U, for which the self-cleavage worked out at 1.23. Then A13G A135C, with 0.49; and A11G A126G, with 0.39. Then A13G U37A, with 0.82. Then A13U A82U, with 0.24; and U12C U57G, with 1.33. For A11G G29A, the self-cleavage was determined as 0.57. Turning to A13U A33C, the self-cleavage was determined as 2.21.

With A11U A22G, the self-cleavage was 1.53. For A13G A56U, the self-cleavage worked out at 1.33. In the case of A13G A56G, the self-cleavage was 1.04.

Consider A11G A117G, for which the self-cleavage is 1.19. Then U12C U87C, with 0.75; and A11G U49G, with 1.21; and A11G U49A, with 0.88.

As to A11G G83A, the self-cleavage turned out to be 1.23.

In the case of A13G A118C, the self-cleavage came out at 0.41. Then U12A A116G, with 0.49. Next, A11U A135U: 0.98. For A13G U26C, the self-cleavage worked out at 0.93. Turning to A11U U70C, the self-cleavage turned out to be 0.67. As for A11G A129U, the self-cleavage stood at 0.45. Turning to A11G A129G, the self-cleavage amounted to 0.83. With A13G U120A, the self-cleavage worked out at 1.9. Take A13G U120C: the self-cleavage was 0.6.

In the case of A11U A54G, the self-cleavage was 0.

Values taken from the RNAGym collection of RNA variant scans (doi:10.7554/elife.90254).
